Source: publication PMC2777442 (Nucleic Acids Research, 2009)
Where two headings read alike, the source gives them in different places.

Experiments:
[1] = biological target: T1, TFAM (mature, MTS removed) (Homo sapiens, UniProt Q00059 50-246); test: fluorescence anisotropy
T1 sequence: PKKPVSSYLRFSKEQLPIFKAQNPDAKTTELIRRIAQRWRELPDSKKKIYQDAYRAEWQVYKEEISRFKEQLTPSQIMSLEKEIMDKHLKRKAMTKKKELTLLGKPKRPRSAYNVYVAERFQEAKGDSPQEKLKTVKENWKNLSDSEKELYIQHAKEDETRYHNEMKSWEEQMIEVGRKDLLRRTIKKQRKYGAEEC

AUC = biological target: the molecule itself; test: AUC
[2] = biological target: T1, TFAM (mature, MTS removed); test: fluorescence anisotropy; remark: listed apart in the source

B1: Bulged-DNA-S (dsDNA)
DNA 1: CGATATTAAGAGCC
DNA 2: GGCTCAATATCG
apparent K (half saturation) [1]: 164 ± 17 nM

B2: Human mitochondrial transcription factor A (TFAM), residues 50-246 (natural protein, UniProt Q00059-1 50-246, looked up)
chain: PKKPVSSYLRFSKEQLPIFKAQNPDAKTTELIRRIAQRWRELPDSKKKIYQDAYRAEWQVYKEEISRFKEQLTPSQIMSLEKEIMDKHLKRKAMTKKKELTLLGKPKRPRSAYNVYVAERFQEAKGDSPQEKLKTVKENWKNLSDSEKELYIQHAKEDETRYHNEMKSWEEQMIEVGRKDLLRRTIKKQRKYGAEEC
stoichiometry N (AUC): 2

B3: Normal-DNA-S (dsDNA)
DNA 1: CGATATTGAGCC
DNA 2: GGCTCAATATCG
apparent K (half saturation) [2]: 413 ± 59 nM
